± gives the uncertainty stated by the source.

A short description of the data set: amyloid nucleation score (Sup35N fusion, yeast selection) (log enrichment); library NNK3; higher = more nucleation; inactive = no reads after selection. In a few lines:
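Random libraries were run with three technical output replicates. In each, psi-negative yeast expressing Sup35N fused to peptides of 20 random codons were induced 24 hours with 100 μM copper sulfate and grown 7 days at 30°C on medium lacking adenine and uracil, and input and output plasmid inserts were Illumina-sequenced. The nucleation score is the DiMSum log enrichment of output over input reads, centred on the mode score of non-aggregating sequences, and sequences under 100 input reads were excluded.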
In the case of DFFNWWSSVWFYLLMGRKVE, the amyloid nucleation score result is “inactive”.

As to CMYILFINVCMATGANYGSY, the amyloid nucleation score amounted to 1.58 ± 0.092.

For the substance MTFIRPKLGKKPGMYGTNIV, the amyloid nucleation score result was “inactive”.

With YLFSELYMLNLSRFAK, the amyloid nucleation score entry is “inactive”.

TSGSEDLLYGRDVVVYRSGC: the amyloid nucleation score entry is “inactive”.

For TIFLSSRGVILYTVSCYKFV, the amyloid nucleation score entry was “inactive”.

As for SKPLFMTNNVTMGTIWPHMG, the amyloid nucleation score result was “inactive”.

Turning to VVDCLFLSEPCYVGFRWVIE, the amyloid nucleation score result is “inactive”.

As for FKWDGPESQFGPSLMRINGA, the amyloid nucleation score amounted to 1.16 ± 0.19.

FRFFFRKSQFYNRSLDNLVR: the amyloid nucleation score entry was “inactive”.

The substance CVDTDLVERWIAWVSSGVML gave an amyloid nucleation score of 0.663 ± 0.21.

For the substance RKLFFEFFFCDSVH, the amyloid nucleation score result is “inactive”.

With FSFMLSDTGLSVFSSVYDEA, the amyloid nucleation score result was “inactive”.

Turning to FVLVN, the amyloid nucleation score entry was “inactive”.

With LNSMGYFILFYIYRFLENLD, the amyloid nucleation score entry is “inactive”.

As for TEPIWWEFGCKYHGYISARS, the amyloid nucleation score result was “inactive”.

Regarding RSVVLLAMMSGYRDISIFRT, the amyloid nucleation score result is “inactive”.

Regarding DRNLDVPCLDVLRSMLDVCN, the amyloid nucleation score was -0.464 ± 0.96.

As for VAKFYRQ, the amyloid nucleation score result was “inactive”.

On to CHYRYISYVENFPCSERVSI, for which the amyloid nucleation score result is “inactive”.

As to PDFNLWRTEMLSYNGWK, the amyloid nucleation score result was “inactive”.

SRCFLKKYCFLMTSILVRGI: the amyloid nucleation score result is “inactive”.

In the case of FCYSDLNYRWICYSRDVESS, the amyloid nucleation score entry was “inactive”.

On to SGFDGTPFVLLSSDMFSNIG, for which the amyloid nucleation score entry was “inactive”.

Take TWFTSFYCFSNNAYLYF: the amyloid nucleation score stood at 1.8 ± 0.066.

For the substance ENLLISKRCINGMA, the amyloid nucleation score entry is “inactive”.

GNGVTPWPAEENSSRSPMPY: the amyloid nucleation score entry was “inactive”.

As for SPWLSAHRSNTGVRTLSLEV, the amyloid nucleation score entry is “inactive”.

FFPKWFCMTLLINDVGNHDM showed an amyloid nucleation score of 0.921 ± 0.25.

VHVSVCRSKGWHDLWRIKCV: the amyloid nucleation score result is “inactive”.

For CQQIWRLGQCVQLLFCTRSK, the amyloid nucleation score was 1.31 ± 0.11.

As to LWTYIWDRFEDPVECLRWWN, the amyloid nucleation score entry is “inactive”.

For the substance PFHRIPISVSLGYAFGTRCS, the amyloid nucleation score result is “inactive”.

Turning to HIILFSIKSSKD, the amyloid nucleation score worked out at 1.37 ± 0.12.

As to TAKPYRDDNNGYSAYIHPCS, the amyloid nucleation score entry is “inactive”.

With VRFVSYRLVGSV, the amyloid nucleation score result was “inactive”.

On to GKMLRWMKH, for which the amyloid nucleation score result is “inactive”.

In the case of WREAICLLICTIITVPWVNW, the amyloid nucleation score entry was “inactive”.

VNLYGSRL: the amyloid nucleation score result is “inactive”.

With FAEYISQ, the amyloid nucleation score came out at 0.293 ± 0.23.

Consider MFFQLVCYFNLSTVMTSYFE, for which the amyloid nucleation score worked out at 0.593 ± 0.14.

On to MVFCNGFGYGASNFGNNSAS, for which the amyloid nucleation score entry was “inactive”.

Turning to SLTRQLEPADNTDPRCVKSV, the amyloid nucleation score result was “inactive”.

Take LWVTM: the amyloid nucleation score turned out to be 1.37 ± 0.14.

Consider SCKRPVTVWACDQVRYDRFP, for which the amyloid nucleation score result was “inactive”.

Substance DMISFKMLQYCWCSSCVFSH registered an amyloid nucleation score of 2.18 ± 0.088.

For FASIRSRTRDRVSYVTPSFL, the amyloid nucleation score result is “inactive”.

Turning to KNWYKVMSRYYKC, the amyloid nucleation score is 0.338 ± 0.38.

As to ILLRQKHVHNY, the amyloid nucleation score result was “inactive”.

Consider FYFNYFIRMCNITCDI, for which the amyloid nucleation score is 2.73 ± 0.05.

Consider INWIWAYI, for which the amyloid nucleation score entry was “inactive”.

For the substance SNCRNQFRERVLIAGVLWVV, the amyloid nucleation score result is “inactive”.

As for YRYNNLKRCGNSAQWLAISS, the amyloid nucleation score is -0.08 ± 0.34.

With GIKKTREPNCLVCIDIWIFI, the amyloid nucleation score was 1.33 ± 0.07.

With IYVRAFRWFMNKVTSTAWTI, the amyloid nucleation score entry is “inactive”.

Turning to IEINCCSNFIGVCVDNLNL, the amyloid nucleation score turned out to be 2.57 ± 0.055.

Turning to LSGLRNAVERVVAGFIHGRV, the amyloid nucleation score result was “inactive”.

For EMSAMRCILLMRVDPICSLS, the amyloid nucleation score result is “inactive”.

For the substance SLVIAQARANRNILLLTVAR, the amyloid nucleation score entry is “inactive”.

SFVVN: the amyloid nucleation score result is “inactive”.

Take ENTTMVGHMGYSLMFSYK: the amyloid nucleation score amounted to 1.25 ± 0.12.

IAYDWCQVSVTNFMSRSLMH: the amyloid nucleation score was -0.04 ± 0.75.

Consider NAHPWGYWSIVMRNIKVVVL, for which the amyloid nucleation score entry is “inactive”.

Substance ITYKGLIWMSQGHVACRSRM showed an amyloid nucleation score of -0.008 ± 0.7.

Consider MFVGP, for which the amyloid nucleation score entry is “inactive”.

As for TYRLAVLS, the amyloid nucleation score entry is “inactive”.

With SVGRYA, the amyloid nucleation score is -0.306 ± 0.41.

Regarding RMVRIALTL, the amyloid nucleation score entry is “inactive”.

On to IGDDGFVN, for which the amyloid nucleation score entry was “inactive”.

For the substance DMGKKSSLGNKWVIREAHMG, the amyloid nucleation score result was “inactive”.

With WNMIFTQPNNQPIVVRDFVD, the amyloid nucleation score entry was “inactive”.

Consider FTWLSMYYCLRANERK, for which the amyloid nucleation score was found to be 1.33 ± 0.15.

For the substance SLWIYTMSYCLSWNYDCFG, the amyloid nucleation score was 0.669 ± 0.17.

The substance TDFPYK had an amyloid nucleation score of -0.12 ± 0.53.

As for YFYKNLSSFHFGKMRLK, the amyloid nucleation score result was “inactive”.

As for VIRIGDPILTV, the amyloid nucleation score entry is “inactive”.

SYRAARNFHMFLLYWHGTRW: the amyloid nucleation score result was “inactive”.

LCALP: the amyloid nucleation score entry was “inactive”.

For VDWKVAR, the amyloid nucleation score result was “inactive”.

Take RMSLNFNSQPRSLVMGNKYS: the amyloid nucleation score result is “inactive”.

In the case of GTVSSYLRTHSKVFSRRFRD, the amyloid nucleation score result was “inactive”.

As for MPDLITGGKPAIRWYYGSDS, the amyloid nucleation score entry is “inactive”.

On to GKTLLTSKDGCV, for which the amyloid nucleation score result was “inactive”.

Take LRATHVSVKGSGRYSVSTFS: the amyloid nucleation score entry was “inactive”.

For WLSFFRWR, the amyloid nucleation score entry is “inactive”.

Consider TCLWARSPVLEDFEYGLHGS, for which the amyloid nucleation score result is “inactive”.

With ATGVMLNDDS, the amyloid nucleation score entry is “inactive”.

In the case of TLFDRFWVLWNEKWESSGKY, the amyloid nucleation score result is “inactive”.

For the substance LPHVAVEAVTLAMWVE, the amyloid nucleation score entry is “inactive”.

Consider SRNMLH, for which the amyloid nucleation score result is “inactive”.

Substance IFNRQFQKSIMRSWLNYESK displayed an amyloid nucleation score of 0.864 ± 0.13.

Take YLLCF: the amyloid nucleation score result was “inactive”.

PRVIHWSLALNSSHCNFVFF displayed an amyloid nucleation score of 2.67 ± 0.073.

Consider DIWYRIKMFSIWKFMSHTTG, for which the amyloid nucleation score entry was “inactive”.

As to VGWIHYCQGTYKRMFGITGR, the amyloid nucleation score result was “inactive”.

Consider ASHMMQRIMTRQ, for which the amyloid nucleation score was -0.308 ± 0.84.

Take QMQTATRHFNLG: the amyloid nucleation score result was “inactive”.

As for GTLVWNCDGCLDLKGRWVGG, the amyloid nucleation score result was “inactive”.

The substance DEYATRIGYWCCK came in with an amyloid nucleation score of 1.7 ± 0.084.

For YSSQLILTYDTRL, the amyloid nucleation score result is “inactive”.

ALSHITDLQFLYSIVFQAHM came in with an amyloid nucleation score of -0.674 ± 1.3.

Consider LHCLEFSCVRHSVRY, for which the amyloid nucleation score was determined as 2.14 ± 0.073.

Consider VRTLPDLLPINRKQMVKERM, for which the amyloid nucleation score entry was “inactive”.

The substance SSVGMARAYL returned an amyloid nucleation score of -1.17 ± 1.9.

With IRDASWTKNLEFECLLFKPS, the amyloid nucleation score result was “inactive”.

Turning to LVSFWSVRFIICYLRLGLSC, the amyloid nucleation score entry is “inactive”.

As for LGIIH, the amyloid nucleation score result was “inactive”.

Take MCQAIDSNTYWYLAHCGNSS: the amyloid nucleation score was determined as 0.494 ± 0.25.

For VMYWLYRINDSSQSFFSYFS, the amyloid nucleation score result was “inactive”.

In the case of LFKMPCLILVWPDSMFATSL, the amyloid nucleation score result is “inactive”.

Take GACRCNCSSSDDPQNKRNML: the amyloid nucleation score entry is “inactive”.

On to MAMLS, for which the amyloid nucleation score result is “inactive”.

Consider RCQATWWNIIFFAIGDCDLL, for which the amyloid nucleation score entry was “inactive”.

In turn, SCFCMKLSLFYGAIN showed an amyloid nucleation score of 0.675 ± 0.51.

Regarding STQGCLCRYPG, the amyloid nucleation score was -0.333 ± 0.88.

Turning to VWVFYWDKLRKF, the amyloid nucleation score entry was “inactive”.

On to DFNDSLFLPRIDTPSLVFLQ, for which the amyloid nucleation score result is “inactive”.

LLGVWG gave an amyloid nucleation score of 0.217 ± 0.53.

As for LFRGRCAPLFSQSVA, the amyloid nucleation score result is “inactive”.

HASSWFYWRIFASGLNSDR: the amyloid nucleation score entry is “inactive”.

As for GPCFEVAVYYDATEMGKQSI, the amyloid nucleation score was -0.507 ± 1.1.

Turning to CRLRGKLIYLLIMDGTKE, the amyloid nucleation score result is “inactive”.

With TSRRVCLQ, the amyloid nucleation score entry was “inactive”.

As for TLGGEMQFVKMFCLLYFNCG, the amyloid nucleation score result is “inactive”.

Turning to VVLDSVVWGFDELSRLMSGA, the amyloid nucleation score entry was “inactive”.

FAYLF: the amyloid nucleation score result is “inactive”.

In the case of TVTSSFATLNQVYGPHVFVN, the amyloid nucleation score entry is “inactive”.

In the case of SHNRCVEWFKWIF, the amyloid nucleation score turned out to be 0.885 ± 0.09.

On to MVFMADK, for which the amyloid nucleation score came out at 0.268 ± 0.2.

As for GICEMVGTSYTFE, the amyloid nucleation score entry is “inactive”.

For RHAYQRWLIFC, the amyloid nucleation score result is “inactive”.

Consider RMGYFSCQVRYSRFLTIPSR, for which the amyloid nucleation score result was “inactive”.

On to KLSWTPRLLNSYSLLEYVQD, for which the amyloid nucleation score entry is “inactive”.

These data come from the supplement of paper PMC12042874.
